In article PMC5777638 (Nature, 2018):

T1: RNA polymerase III subunit C128 (Saccharomyces cerevisiae, UniProt P22276 1-1149)
T1 sequence (looked up): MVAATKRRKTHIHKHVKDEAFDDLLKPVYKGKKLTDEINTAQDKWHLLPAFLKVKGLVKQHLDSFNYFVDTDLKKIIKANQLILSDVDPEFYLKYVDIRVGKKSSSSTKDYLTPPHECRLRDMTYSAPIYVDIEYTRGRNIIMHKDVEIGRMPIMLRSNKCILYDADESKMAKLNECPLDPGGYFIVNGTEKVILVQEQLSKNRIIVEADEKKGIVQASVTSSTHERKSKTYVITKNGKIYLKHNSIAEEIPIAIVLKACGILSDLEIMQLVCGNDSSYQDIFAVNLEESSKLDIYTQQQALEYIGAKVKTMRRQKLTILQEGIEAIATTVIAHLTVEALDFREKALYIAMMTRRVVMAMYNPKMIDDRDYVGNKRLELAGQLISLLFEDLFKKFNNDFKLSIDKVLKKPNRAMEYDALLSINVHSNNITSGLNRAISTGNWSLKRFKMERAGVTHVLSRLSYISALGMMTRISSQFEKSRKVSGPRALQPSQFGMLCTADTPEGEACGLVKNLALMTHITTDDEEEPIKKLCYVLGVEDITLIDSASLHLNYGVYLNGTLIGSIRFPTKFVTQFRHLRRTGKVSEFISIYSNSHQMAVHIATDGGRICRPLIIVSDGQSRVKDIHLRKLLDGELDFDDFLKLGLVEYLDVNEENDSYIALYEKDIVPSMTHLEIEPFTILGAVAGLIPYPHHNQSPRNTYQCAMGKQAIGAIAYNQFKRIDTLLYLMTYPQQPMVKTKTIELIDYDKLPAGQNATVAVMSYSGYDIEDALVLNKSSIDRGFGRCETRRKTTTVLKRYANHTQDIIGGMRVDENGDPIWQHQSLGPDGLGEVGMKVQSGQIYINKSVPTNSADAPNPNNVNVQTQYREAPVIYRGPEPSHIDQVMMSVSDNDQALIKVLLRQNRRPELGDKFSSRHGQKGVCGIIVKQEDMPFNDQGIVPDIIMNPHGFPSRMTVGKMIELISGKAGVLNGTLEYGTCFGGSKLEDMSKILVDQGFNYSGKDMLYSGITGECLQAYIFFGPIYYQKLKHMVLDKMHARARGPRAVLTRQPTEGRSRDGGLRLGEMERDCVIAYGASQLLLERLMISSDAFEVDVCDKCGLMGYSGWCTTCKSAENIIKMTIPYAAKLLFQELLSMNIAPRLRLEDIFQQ

B1: RNA polymerase III subunit C34 (natural protein, Saccharomyces cerevisiae, UniProt P32910 1-317, looked up)
chain: MSGMIENGLQLSDNAKTLHSQMMSKGIGALFTQQELQKQMGIGSLTDLMSIVQELLDKNLIKLVKQNDELKFQGVLESEAQKKATMSAEEALVYSYIEASGREGIWSKTIKARTNLHQHVVLKCLKSLESQRYVKSVKSVKFPTRKIYMLYSLQPSVDITGGPWFTDGELDIEFINSLLTIVWRFISENTFPNGFKNFENGPKKNVFYAPNVKNYSTTQEILEFITAAQVANVELTPSNIRSLCEVLVYDDKLEKVTHDCYRVTLESILQMNQGEGEPEAGNKALEDEEEFSIFNYFKMFPASKHDKEVVYFDEWTI
B2: RNA polymerase III subunit C37 (natural protein, Saccharomyces cerevisiae, UniProt P36121 1-282, looked up)
chain: MSIDNKLFVTEEDEEDRTQDRADVEDESNDIDMIADENGTNSAIANEQEEKSEEVKAEDDTGEEEEDDPVIEEFPLKISGEEESLHVFQYANRPRLVGRKPAEHPFISAARYKPKSHLWEIDIPLDEQAFYNKDKAESEWNGVNVQTLKGVGVENNGQYAAFVKDMQVYLVPIERVAQLKPFFKYIDDANVTRKQEDARRNPNPSSQRAQVVTMSVKSVNDPSQNRLTGSLLAHKVADEEANIELTWAEGTFEQFKDTIVKEAEDKTLVALEKQEDYIDNLV

What was measured:
[1] = molecular target: T1, RNA polymerase III subunit C128; test: cryo-EM structure
[2] = molecular target: B1; test: cryo-EM structure

binding result [1]	binding result [2]	Binder
binds	–	B1
–	binds	B2
